Test results as given in patent US20200317776A1 (published 2020).

T1: human TREM2 expressed on cells (human, UniProt Q9NZC2 19-230)
T1 construct: BW5147.G.1.4 cells stably expressing human TREM2 together with Dap12, or endogenous TREM2 of primary human myeloid cells; also called huT2 BW; hTREM2 expressing cell line
T1 sequence: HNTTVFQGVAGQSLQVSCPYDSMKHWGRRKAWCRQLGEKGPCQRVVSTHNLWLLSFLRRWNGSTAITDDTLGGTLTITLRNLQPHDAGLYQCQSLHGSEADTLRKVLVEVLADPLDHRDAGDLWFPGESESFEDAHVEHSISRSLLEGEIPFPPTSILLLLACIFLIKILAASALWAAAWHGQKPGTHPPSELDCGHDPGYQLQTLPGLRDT

T2: human TREM2 Fc fusion (entire TREM2 ECD; only one Fc arm fused to TREM2) (human, UniProt Q9NZC2 19-174)
T2 construct: also called huTREM2-Fc; recombinant hTREM2
T2 sequence: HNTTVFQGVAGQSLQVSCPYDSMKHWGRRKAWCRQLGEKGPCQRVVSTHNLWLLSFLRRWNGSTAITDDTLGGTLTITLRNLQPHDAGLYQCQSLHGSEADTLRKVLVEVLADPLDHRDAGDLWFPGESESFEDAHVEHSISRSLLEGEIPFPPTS

T3: cynomolgus monkey TREM2 Fc fusion (entire TREM2 ECD; only one Fc arm fused to TREM2) (cynomolgus monkey, UniProt Q9NZC2 19-174 (human entry))
T3 construct: also called cyno TREM2-Fc
T3 chain: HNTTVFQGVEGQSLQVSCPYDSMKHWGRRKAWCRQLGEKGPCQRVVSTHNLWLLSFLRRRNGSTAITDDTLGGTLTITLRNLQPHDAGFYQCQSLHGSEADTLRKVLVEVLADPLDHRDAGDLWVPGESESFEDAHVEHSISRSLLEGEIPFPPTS


What was measured:
[1] = target: T1, human TREM2 expressed on cells; assay: FACS, human DCs
Description: To examine cell binding of affinity matured anti-TREM2 antibodies, both primary human monocyte derived dendritic cells and recombinant, human TREM2 expressing cells were utilized. For the latter, BW5147.G.1.4 (ATCC® TIB48™) and HEK293T cells stably expressing human TREM2 together with Dap12 using viral infection were established. For primary human monocyte derived dendritic cells, human monocytes were isolated from whole blood using RosetteSep Human monocyte enrichment cocktail (Stemcell technologies) and Ficoll centrifugation per manufacturer protocols. After lysing red blood cells with ACK lysing buffer, monocytes were resuspended in complete media (RPMI, 10% FBS, Pen/Strep, L-glutamine, HEPES, non-essential amino acid, Sodium pyruvate) with 100 ng/ml human GM-CSF (hu-GMCSF) and, human IL-4 (hu-IL-4) to differentiate dendritic cells for 6 days.
Cells were harvested by trypsinization (Hek293T) or scraping (BW and dendritic cells), washed in PBS, counted and plated on 96-well U bottom plates at […] cells/well. The plates were spun at 1,400 rpm for 3 minutes and primary TREM2 or control antibodies were added in FACS buffer (PBS+2% FBS) and incubated on ice for one hour. Cells were subsequently centrifuged as before and washed thrice with FACS buffer. Cells were then incubated with anti-human PE conjugated secondary antibody (BD Biosciences) in FACS buffer for 30 minutes on ice. Cells were again washed thrice with FACS buffer and analyzed on a BD FACS Canto or an Intellicyt Flow Cytometer. Binding was measured as mean fluorescence intensity in the APC channel.

[2] = target: T2, human TREM2 Fc fusion (entire TREM2 …); assay: BLI, Fab, monovalent
[3] = target: T3, cynomolgus monkey TREM2 Fc fusion …; assay: BLI, Fab, monovalent
[4] = target: T1, human TREM2 expressed on cells; assay: FACS, hTREM2 BW cells
Procedure, shortened: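 Cells were BW5147.G.1.4 stably expressing human TREM2 with Dap12, or human monocyte-derived dendritic cells differentiated 6 days with GM-CSF and IL-4. Antibodies bound 1 h on ice in PBS+2% FBS, then PE anti-human secondary 30 min on ice; flow cytometry read-out as mean fluorescence intensity.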

[5] = target: T1, human TREM2 expressed on cells; assay: cell-based or functional assay
[6] = target: T4, human TREM2/DAP12 fusion protein (human, UniProt O43914 41-113, limits assumed); assay: cell-based or functional assay
T4 sequence (O43914 other isoform, or with tags, fused parts or gaps limits assumed): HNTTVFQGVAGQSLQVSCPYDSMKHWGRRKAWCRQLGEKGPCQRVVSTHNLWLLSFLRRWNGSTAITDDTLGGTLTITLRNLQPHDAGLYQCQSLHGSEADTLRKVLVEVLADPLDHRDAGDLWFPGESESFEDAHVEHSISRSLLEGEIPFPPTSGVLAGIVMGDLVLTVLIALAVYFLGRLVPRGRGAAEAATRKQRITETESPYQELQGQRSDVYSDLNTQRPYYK

[7] = target: T4, human TREM2/DAP12 fusion protein; assay: cell-based or functional assay; remark: listed apart in the source

MFI [1]	Kd [2]	Kd [3]	Kd [4]	BW Luc assay plate bound 7.3 nM IgG, FOC [6]	BW Luc assay soluble 7.3 nM IgG, FOC [6]	Soluble luciferase activation at 10 µg/ml Fold over control [7]	Binder	DC viability (AUC) [5]	Mac viability (AUC) [5]
195 MFI	21.2 nM	27.2 nM	1.92 nM	1.22 FOC	2.3 FOC	–	AL2p-51 (antibody, V domains shown, Fab and IgG formats under one id) VH: QVQLVQSGAEVKKPGSSVKVSCKASGYAFSSHWMNWVRQAPGQGLEWMGRIYPGEGDTNYAQKFHGRVTITADESTSTAYMELSSLRSEDTAVYYCARLLRNQPGESYAMDYWGQGTLVTVSS VL: DVVMTQTPLSLSVTPGQPASISCRTSQSLVHSNQYTYLHWYLQKPGQSPQLLIYKVSNRVSGVPDRFSGSGSGTDFTLKISRVEAEDVGVYYCSQSTRVPYTFGQGTKLEIK	259000 AUC	-11200 AUC
–	–	–	–	–	–	4.13 fold over control	AL2p-h36 (antibody, human IgG1, V domains shown) VH: EVQLLESGGGLVQPGGSLRLSCAASGYAFSSSWMNWVRQAPGKGLEWIGRIYPGDGDTNYAQKFQGRATISADTSKNTAYLQMNSLRAEDTAVYYCARLLRNQPGESYAMDYWGQGTLVTVSS VL: DVVMTQTPLSLSVTPGQPASISCRSSQSLVHSNGYTYLHWYLQKPGQSPQLLIYKVSNRFSGVPDRFSGSGSGTDFTLKISRVEAEDLGVYFCSQSTRVPYTFGQGTKLEIK	–	–
235 MFI	13.9 nM	16.8 nM	2.3 nM	1.53 FOC	2.17 FOC	–	AL2p-54 (antibody, V domains shown, Fab and IgG formats under one id) VH: QVQLVQSGAEVKKPGSSVKVSCKASGYAFSSHWMNWVRQAPGQGLEWMGRIYPGEGDTNYAQKFHGRVTITADESTSTAYMELSSLRSEDTAVYYCARLLRNKPGESYAMDYWGQGTLVTVSS VL: DVVMTQTPLSLSVTPGQPASISCRTSQSLVHSNQYTYLHWYLQKPGQSPQLLIYKVSNRVSGVPDRFSGSGSGTDFTLKISRVEAEDVGVYYCSQSTRVPYTFGQGTKLEIK	570000 AUC	-7640 AUC
–	–	–	–	–	–	5.8 fold over control	AL2p-h29 (antibody, human IgG1, V domains shown) VH: QVQLVQSGAEVKKPGASVKVSCKASGYAFSSSWMNWVRQAPGQGLEWIGRIYPGDGDTNYAQKFQGRATMTADTSTSTAYMELSSLRSEDTAVYYCARLLRNQPGESYAMDYWGQGTLVTVSS VL: DVVMTQTPLSLSVTPGQPASISCRSSQSLVHSNGYTYLHWYLQKPGQSPQLLIYKVSNRFSGVPDRFSGSGSGTDFTLKISRVEAEDLGVYFCSQSTRVPYTFGQGTKLEIK	–	–
141 MFI	18.5 nM	22.6 nM	2.05 nM	1.49 FOC	2.08 FOC	–	AL2p-55 (antibody, V domains shown, same VH/VL entries as AL2p-56; Fab and IgG formats under one id) VH: EVQLVQSGAEVKKPGSSVKVSCKASGYAFSSHWMNWVRQAPGQGLEWMGRIYPGEGDTNYAQKFHGRVTITADESTSTAYMELSSLRSEDTAVYYCARLLRNKPGESYAMDYWGQGTLVTVSS VL: DVVMTQTPLSLSVTPGQPASISCRTSQSLVHSNAYTYLHWYLQKPGQSPQLLIYKVSNRVSGVPDRFSGSGSGTDFTLKISRVEAEDVGVYYCSQSTRVPYTFGQGTKLEIK	631000 AUC	-5280 AUC
155 MFI	18.7 nM	18.8 nM	2.01 nM	1.51 FOC	2.02 FOC	–	AL2p-56 (antibody, V domains shown, same VH/VL entries as AL2p-55; Fab and IgG formats under one id) VH: EVQLVQSGAEVKKPGSSVKVSCKASGYAFSSHWMNWVRQAPGQGLEWMGRIYPGEGDTNYAQKFHGRVTITADESTSTAYMELSSLRSEDTAVYYCARLLRNKPGESYAMDYWGQGTLVTVSS VL: DVVMTQTPLSLSVTPGQPASISCRTSQSLVHSNAYTYLHWYLQKPGQSPQLLIYKVSNRVSGVPDRFSGSGSGTDFTLKISRVEAEDVGVYYCSQSTRVPYTFGQGTKLEIK	643000 AUC	-7620 AUC
152 MFI	17.8 nM	17.6 nM	1.83 nM	1.41 FOC	2.03 FOC	–	AL2p-57 (antibody, V domains shown, Fab and IgG formats under one id) VH: EVQLVQSGAEVKKPGSSVKVSCKASGYAFSSHWMNWVRQAPGQGLEWMGRIYPGEGDTNYAQKFHGRVTITADESTSTAYMELSSLRSEDTAVYYCARLLRNKPGESYAMDYWGQGTLVTVSS VL: DVVMTQTPLSLSVTPGQPASISCRTSQSLVHSNQYTYLHWYLQKPGQSPQLLIYKVSNRVSGVPDRFSGSGSGTDFTLKISRVEAEDVGVYYCSQSTRVPYTFGQGTKLEIK	506000 AUC	-3560 AUC
–	–	–	–	–	–	5.59 fold over control	AL2p-h28 (antibody, human IgG1, V domains shown) VH: QVQLVQSGAEVKKPGASVKVSCKASGYAFSSSWMNWVRQAPGQGLEWIGRIYPGDGDTNYAQKFQGRATLTADTSTSTAYMELSSLRSEDTAVYFCARLLRNQPGESYAMDYWGQGTLVTVSS VL: DVVMTQTPLSLSVTPGQPASISCRSSQSLVHSNGYTYLHWYLQKPGQSPQLLIYKVSNRFSGVPDRFSGSGSGTDFTLKISRVEAEDLGVYFCSQSTRVPYTFGQGTKLEIK	–	–
159 MFI	21.1 nM	31.3 nM	1.72 nM	1.45 FOC	2.32 FOC	–	AL2p-53 (antibody, V domains shown, Fab and IgG formats under one id) VH: EVQLVQSGAEVKKPGSSVKVSCKASGYAFSSHWMNWVRQAPGQGLEWMGRIYPGEGDTNYAQKFHGRVTITADESTSTAYMELSSLRSEDTAVYYCARLLRNQPGESYAMDYWGQGTLVTVSS VL: DVVMTQTPLSLSVTPGQPASISCRTSQSLVHSNQYTYLHWYLQKPGQSPQLLIYKVSNRVSGVPDRFSGSGSGTDFTLKISRVEAEDVGVYYCSQSTRVPYTFGQGTKLEIK	234000 AUC	-10200 AUC
224 MFI	27 nM	28 nM	2.42 nM	1.3 FOC	1.75 FOC	–	AL2p-52 (antibody, V domains shown, Fab and IgG formats under one id) VH: EVQLVQSGAEVKKPGSSVKVSCKASGYAFSSHWMNWVRQAPGQGLEWMGRIYPGEGDTNYAQKFHGRVTITADESTSTAYMELSSLRSEDTAVYYCARLLRNQPGESYAMDYWGQGTLVTVSS VL: DVVMTQTPLSLSVTPGQPASISCRTSQSLVHSNAYTYLHWYLQKPGQSPQLLIYKVSNRVSGVPDRFSGSGSGTDFTLKISRVEAEDVGVYYCSQSTRVPYTFGQGTKLEIK	283000 AUC	-13500 AUC
